Source: PMC4232046 (2014)

Molecular target: Aspergillus fumigatus core CCAAT-binding complex (HapB(230–299), HapC(40–137), HapE(47–164)) (Aspergillus fumigatus)
Test: SPR

B1: Aspergillus fumigatus HapX(24–158) (domain or fragment)
chain: SPSPGPGTPGSITSKEWVIPPRPKPGRKPATDTPPTKRKAQNRAAQRAFRERRAARVNELEEQIKKIEDEHEIHIAAFKEQITNLSREVEQCRSEMTWWRDRCHALEKEVSVERSAKEAIVKEFRSSLSDREAVR
With B1 the Kd was 35 nM.
